From the supplement of paper PMC9112550, “Optimization of the antimicrobial peptide Bac7 by deep mutational scanning” (BMC Biology, 2022)

System: Escherichia coli TOP10
Assay: shrunken log2 fold change of peptide-encoding DNA abundance (4.5 h post-induction vs induction); higher = less antimicrobial activity (less host growth inhibition)
Conditions: time post-induction: 4.5 h; library: site-saturation at positions 5, 18, 19, 20
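Note: peptides expressed intracellularly from a pBAD plasmid library in pooled LB shake-flask culture, induced with 0.3% L-arabinose, DNA abundance read by NGS, three biological replicates, DESeq2 with apeglm shrinkage.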

RRIRWRPPRLPRPRPRPMLCPRP
shrunken log2 fold change: 0.216

RRIRWRPPRLPRPRPRPMMHPRP
shrunken log2 fold change: 0.159

RRIRWRPPRLPRPRPRPMMQPRP
shrunken log2 fold change: 0.195

RRIRWRPPRLPRPRPRPMMTPRP
shrunken log2 fold change: 0.0544

RRIRWRPPRLPRPRPRPMNIPRP
shrunken log2 fold change: -0.541

RRIRWRPPRLPRPRPRPMNPPRP
shrunken log2 fold change: -0.153

RRIRWRPPRLPRPRPRPMPWPRP
shrunken log2 fold change: 0.0161

RRIRWRPPRLPRPRPRPMQCPRP
shrunken log2 fold change: 0.0434

RRIRWRPPRLPRPRPRPMQLPRP
shrunken log2 fold change: 0.12

RRIRWRPPRLPRPRPRPMRPPRP
shrunken log2 fold change: 1.15

RRIRWRPPRLPRPRPRPMRTPRP
shrunken log2 fold change: 0.273

RRIRWRPPRLPRPRPRPMSGPRP
shrunken log2 fold change: 0.118

RRIRWRPPRLPRPRPRPMTPPRP
shrunken log2 fold change: 0.764

RRIRWRPPRLPRPRPRPMTRPRP
shrunken log2 fold change: 0.0972

RRIRWRPPRLPRPRPRPMVPPRP
shrunken log2 fold change: -0.0589

RRIRWRPPRLPRPRPRPMWYPRP
shrunken log2 fold change: -0.0539

RRIRWRPPRLPRPRPRPMYDPRP
shrunken log2 fold change: -0.158

RRIRWRPPRLPRPRPRPMYHPRP
shrunken log2 fold change: -0.712

RRIRWRPPRLPRPRPRPMYIPRP
shrunken log2 fold change: -0.144

RRIRWRPPRLPRPRPRPMYMPRP
shrunken log2 fold change: 0.0903

RRIRWRPPRLPRPRPRPNAHPRP
shrunken log2 fold change: 0.0415

RRIRWRPPRLPRPRPRPNCEPRP
shrunken log2 fold change: 0.0915

RRIRWRPPRLPRPRPRPNDHPRP
shrunken log2 fold change: -0.0566

RRIRWRPPRLPRPRPRPNESPRP
shrunken log2 fold change: -0.0337

RRIRWRPPRLPRPRPRPNEWPRP
shrunken log2 fold change: -0.0242

RRIRWRPPRLPRPRPRPNFNPRP
shrunken log2 fold change: -0.198

RRIRWRPPRLPRPRPRPNGLPRP
shrunken log2 fold change: 0.145

RRIRWRPPRLPRPRPRPNIFPRP
shrunken log2 fold change: 0.0551

RRIRWRPPRLPRPRPRPNIWPRP
shrunken log2 fold change: -0.153

RRIRWRPPRLPRPRPRPNMSPRP
shrunken log2 fold change: -0.00987

RRIRWRPPRLPRPRPRPNNAPRP
shrunken log2 fold change: -0.295

RRIRWRPPRLPRPRPRPNPDPRP
shrunken log2 fold change: 0.167

RRIRWRPPRLPRPRPRPNPKPRP
shrunken log2 fold change: 0.0369

RRIRWRPPRLPRPRPRPNPNPRP
shrunken log2 fold change: 0.055

RRIRWRPPRLPRPRPRPNQKPRP
shrunken log2 fold change: -0.0347

RRIRWRPPRLPRPRPRPNQSPRP
shrunken log2 fold change: -0.108

RRIRWRPPRLPRPRPRPNSAPRP
shrunken log2 fold change: 0.104

RRIRWRPPRLPRPRPRPNSKPRP
shrunken log2 fold change: -0.218

RRIRWRPPRLPRPRPRPNTAPRP
shrunken log2 fold change: 0.055

RRIRWRPPRLPRPRPRPNTIPRP
shrunken log2 fold change: -0.492

RRIRWRPPRLPRPRPRPNTRPRP
shrunken log2 fold change: 0.15

RRIRWRPPRLPRPRPRPNVSPRP
shrunken log2 fold change: -0.0556

RRIRWRPPRLPRPRPRPNWPPRP
shrunken log2 fold change: 0.214

RRIRWRPPRLPRPRPRPNWQPRP
shrunken log2 fold change: -0.0101

RRIRWRPPRLPRPRPRPPADPRP
shrunken log2 fold change: 0.846

RRIRWRPPRLPRPRPRPPAGPRP
shrunken log2 fold change: 0.83

RRIRWRPPRLPRPRPRPPCSPRP
shrunken log2 fold change: -0.00461

RRIRWRPPRLPRPRPRPPDNPRP
shrunken log2 fold change: 0.318

RRIRWRPPRLPRPRPRPPDRPRP
shrunken log2 fold change: 0.166

RRIRWRPPRLPRPRPRPPEKPRP
shrunken log2 fold change: 0.269

RRIRWRPPRLPRPRPRPPHLPRP
shrunken log2 fold change: 0.0195

RRIRWRPPRLPRPRPRPPKHPRP
shrunken log2 fold change: 0.272

RRIRWRPPRLPRPRPRPPLRPRP
shrunken log2 fold change: 0.418

RRIRWRPPRLPRPRPRPPMHPRP
shrunken log2 fold change: 0.429

RRIRWRPPRLPRPRPRPPMTPRP
shrunken log2 fold change: 0.257

RRIRWRPPRLPRPRPRPPNGPRP
shrunken log2 fold change: 0.034

RRIRWRPPRLPRPRPRPPNQPRP
shrunken log2 fold change: 0.363

RRIRWRPPRLPRPRPRPPPLPRP
shrunken log2 fold change: 1.32

RRIRWRPPRLPRPRPRPPPRPRP
shrunken log2 fold change: 1.14

RRIRWRPPRLPRPRPRPPQEPRP
shrunken log2 fold change: 0.567

RRIRWRPPRLPRPRPRPPQLPRP
shrunken log2 fold change: 0.462

RRIRWRPPRLPRPRPRPPQPPRP
shrunken log2 fold change: 0.66

RRIRWRPPRLPRPRPRPPQWPRP
shrunken log2 fold change: 0.179

RRIRWRPPRLPRPRPRPPRYPRP
shrunken log2 fold change: 0.374

RRIRWRPPRLPRPRPRPPSYPRP
shrunken log2 fold change: -0.116

RRIRWRPPRLPRPRPRPPTKPRP
shrunken log2 fold change: 4.13

RRIRWRPPRLPRPRPRPPVFPRP
shrunken log2 fold change: 0.384

RRIRWRPPRLPRPRPRPPYLPRP
shrunken log2 fold change: -0.184

RRIRWRPPRLPRPRPRPQALPRP
shrunken log2 fold change: 0.113

RRIRWRPPRLPRPRPRPQDSPRP
shrunken log2 fold change: 0.0627

RRIRWRPPRLPRPRPRPQECPRP
shrunken log2 fold change: -0.0185

RRIRWRPPRLPRPRPRPQFIPRP
shrunken log2 fold change: -0.211

RRIRWRPPRLPRPRPRPQGKPRP
shrunken log2 fold change: 0.127

RRIRWRPPRLPRPRPRPQHWPRP
shrunken log2 fold change: 0.0364

RRIRWRPPRLPRPRPRPQKCPRP
shrunken log2 fold change: -0.382

RRIRWRPPRLPRPRPRPQKIPRP
shrunken log2 fold change: -0.178

RRIRWRPPRLPRPRPRPQLCPRP
shrunken log2 fold change: 0.078

RRIRWRPPRLPRPRPRPQLTPRP
shrunken log2 fold change: 0.325

RRIRWRPPRLPRPRPRPQLVPRP
shrunken log2 fold change: 0.144

RRIRWRPPRLPRPRPRPQPVPRP
shrunken log2 fold change: 0.135

RRIRWRPPRLPRPRPRPQQTPRP
shrunken log2 fold change: 0.103

RRIRWRPPRLPRPRPRPQRFPRP
shrunken log2 fold change: 0.206

RRIRWRPPRLPRPRPRPQRGPRP
shrunken log2 fold change: 0.115

RRIRWRPPRLPRPRPRPQSTPRP
shrunken log2 fold change: 0.02

RRIRWRPPRLPRPRPRPQWGPRP
shrunken log2 fold change: 0.293

RRIRWRPPRLPRPRPRPQWPPRP
shrunken log2 fold change: 0.158

RRIRWRPPRLPRPRPRPQYNPRP
shrunken log2 fold change: -0.554

RRIRWRPPRLPRPRPRPQYPPRP
shrunken log2 fold change: -0.139

RRIRWRPPRLPRPRPRPQYQPRP
shrunken log2 fold change: -0.268

RRIRWRPPRLPRPRPRPRAAPRP
shrunken log2 fold change: 1.04

RRIRWRPPRLPRPRPRPRCLPRP
shrunken log2 fold change: 0.164

RRIRWRPPRLPRPRPRPRCTPRP
shrunken log2 fold change: 0.243

RRIRWRPPRLPRPRPRPRFQPRP
shrunken log2 fold change: 0.199

RRIRWRPPRLPRPRPRPRGDPRP
shrunken log2 fold change: 1.03

RRIRWRPPRLPRPRPRPRHCPRP
shrunken log2 fold change: 0.0392

RRIRWRPPRLPRPRPRPRIVPRP
shrunken log2 fold change: 0.0526

RRIRWRPPRLPRPRPRPRKAPRP
shrunken log2 fold change: 0.285

RRIRWRPPRLPRPRPRPRKDPRP
shrunken log2 fold change: -0.0246

RRIRWRPPRLPRPRPRPRKLPRP
shrunken log2 fold change: 0.133

RRIRWRPPRLPRPRPRPRLFPRP
shrunken log2 fold change: 0.432

RRIRWRPPRLPRPRPRPRLHPRP
shrunken log2 fold change: 0.191

RRIRWRPPRLPRPRPRPRMYPRP
shrunken log2 fold change: -0.196

RRIRWRPPRLPRPRPRPRNCPRP
shrunken log2 fold change: -0.00862

RRIRWRPPRLPRPRPRPRNEPRP
shrunken log2 fold change: 1.32

RRIRWRPPRLPRPRPRPRNIPRP
shrunken log2 fold change: 0.00817

RRIRWRPPRLPRPRPRPRNLPRP
shrunken log2 fold change: 0.0777

RRIRWRPPRLPRPRPRPRNNPRP
shrunken log2 fold change: -0.162

RRIRWRPPRLPRPRPRPRNPPRP
shrunken log2 fold change: 0.113

RRIRWRPPRLPRPRPRPRPIPRP
shrunken log2 fold change: 0.434

RRIRWRPPRLPRPRPRPRQVPRP
shrunken log2 fold change: 0.16

RRIRWRPPRLPRPRPRPRRNPRP
shrunken log2 fold change: 0.0585

RRIRWRPPRLPRPRPRPRSAPRP
shrunken log2 fold change: 0.294

RRIRWRPPRLPRPRPRPRSDPRP
shrunken log2 fold change: 0.618

RRIRWRPPRLPRPRPRPRTWPRP
shrunken log2 fold change: 0.292

RRIRWRPPRLPRPRPRPSDHPRP
shrunken log2 fold change: -0.474

RRIRWRPPRLPRPRPRPSDTPRP
shrunken log2 fold change: 0.0558

RRIRWRPPRLPRPRPRPSFIPRP
shrunken log2 fold change: -0.545

RRIRWRPPRLPRPRPRPSHMPRP
shrunken log2 fold change: -0.668

RRIRWRPPRLPRPRPRPSILPRP
shrunken log2 fold change: -0.341

RRIRWRPPRLPRPRPRPSKAPRP
shrunken log2 fold change: -0.287

RRIRWRPPRLPRPRPRPSKCPRP
shrunken log2 fold change: -0.00209

RRIRWRPPRLPRPRPRPSLAPRP
shrunken log2 fold change: 0.428

RRIRWRPPRLPRPRPRPSLHPRP
shrunken log2 fold change: -0.044

RRIRWRPPRLPRPRPRPSLSPRP
shrunken log2 fold change: 1.36

RRIRWRPPRLPRPRPRPSNDPRP
shrunken log2 fold change: 0.391

RRIRWRPPRLPRPRPRPSNRPRP
shrunken log2 fold change: -0.174

RRIRWRPPRLPRPRPRPSPAPRP
shrunken log2 fold change: 0.348

RRIRWRPPRLPRPRPRPSREPRP
shrunken log2 fold change: 0.807

RRIRWRPPRLPRPRPRPSRPPRP
shrunken log2 fold change: 0.402

RRIRWRPPRLPRPRPRPSRRPRP
shrunken log2 fold change: 0.215

RRIRWRPPRLPRPRPRPSSEPRP
shrunken log2 fold change: 0.0908

RRIRWRPPRLPRPRPRPSSNPRP
shrunken log2 fold change: -0.0759

RRIRWRPPRLPRPRPRPSSTPRP
shrunken log2 fold change: 0.0549

RRIRWRPPRLPRPRPRPSTKPRP
shrunken log2 fold change: -0.0244

RRIRWRPPRLPRPRPRPSVMPRP
shrunken log2 fold change: -0.333

RRIRWRPPRLPRPRPRPSVPPRP
shrunken log2 fold change: 0.045

RRIRWRPPRLPRPRPRPSWQPRP
shrunken log2 fold change: -0.0268

RRIRWRPPRLPRPRPRPSYAPRP
shrunken log2 fold change: 0.0124

RRIRWRPPRLPRPRPRPSYDPRP
shrunken log2 fold change: -0.256

RRIRWRPPRLPRPRPRPSYQPRP
shrunken log2 fold change: -1.04

RRIRWRPPRLPRPRPRPTCWPRP
shrunken log2 fold change: 0.183

RRIRWRPPRLPRPRPRPTDTPRP
shrunken log2 fold change: -0.0769

RRIRWRPPRLPRPRPRPTEMPRP
shrunken log2 fold change: -0.00675

RRIRWRPPRLPRPRPRPTEPPRP
shrunken log2 fold change: -0.0787

RRIRWRPPRLPRPRPRPTFCPRP
shrunken log2 fold change: 0.478

RRIRWRPPRLPRPRPRPTFFPRP
shrunken log2 fold change: 0.312

RRIRWRPPRLPRPRPRPTHAPRP
shrunken log2 fold change: 0.787

RRIRWRPPRLPRPRPRPTHRPRP
shrunken log2 fold change: 0.8

RRIRWRPPRLPRPRPRPTHSPRP
shrunken log2 fold change: 0.331

RRIRWRPPRLPRPRPRPTITPRP
shrunken log2 fold change: -0.335
